Results on one substance are retold here after US20110183922A1.

The target of the assay is rat AChEt subunit (rat) (UniProt P37136). The assay can be described thus: cell-based or functional assay.
rat AChEt subunit (rat), sequence (P37136 32-614 limits assumed): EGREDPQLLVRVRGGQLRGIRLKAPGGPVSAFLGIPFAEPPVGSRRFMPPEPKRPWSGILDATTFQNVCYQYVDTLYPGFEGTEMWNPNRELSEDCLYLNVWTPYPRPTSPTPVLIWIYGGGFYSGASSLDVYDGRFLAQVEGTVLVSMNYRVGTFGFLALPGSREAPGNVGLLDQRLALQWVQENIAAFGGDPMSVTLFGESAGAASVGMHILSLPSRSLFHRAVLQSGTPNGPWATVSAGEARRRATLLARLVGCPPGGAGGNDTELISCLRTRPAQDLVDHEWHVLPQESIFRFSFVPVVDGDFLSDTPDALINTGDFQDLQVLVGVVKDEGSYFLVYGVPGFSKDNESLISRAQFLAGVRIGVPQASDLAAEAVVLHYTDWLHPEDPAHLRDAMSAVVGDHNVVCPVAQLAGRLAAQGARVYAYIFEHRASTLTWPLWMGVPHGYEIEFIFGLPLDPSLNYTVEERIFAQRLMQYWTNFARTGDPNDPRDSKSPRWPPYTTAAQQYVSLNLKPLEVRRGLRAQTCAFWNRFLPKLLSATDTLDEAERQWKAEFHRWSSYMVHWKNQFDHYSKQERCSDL

Turning to “ColQ PRAD-GPI: PRAD encoding N-terminal domain of ColQ (Qn) linked to the C-terminal domain of the GPI-anchored AChE form”, the cell-associated AChE activity / tetramerization (velocity sedimentation, COS cells) was 100 % increase.
